Patent US20260250411A1 (ALTRUBIO, published 2026)

Columns and labels:
[1] = biological target: T1, human PSGL-1 (extracellular domain) recombinant protein (SinoBiological, 13863-H08H) (human, UniProt Q14242 42-320); experiment: ELISA, plate coated with recombinant PSGL-1 at lower density (0.05 pg/mL as printed), FIG. 3B
T1 construct: extracellular domain; Bought protein; also called recombinant PSGL-1; hPSGL-1 extracellular domain antigen
T1 sequence (looked up): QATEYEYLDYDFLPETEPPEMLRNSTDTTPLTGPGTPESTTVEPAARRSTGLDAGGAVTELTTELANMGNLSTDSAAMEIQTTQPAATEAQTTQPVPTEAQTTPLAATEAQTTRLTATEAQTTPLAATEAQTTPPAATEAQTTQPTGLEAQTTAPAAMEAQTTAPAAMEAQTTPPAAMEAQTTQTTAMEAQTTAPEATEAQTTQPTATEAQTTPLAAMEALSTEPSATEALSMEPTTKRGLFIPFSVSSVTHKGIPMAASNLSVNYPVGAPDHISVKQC
Method: (§1) 96-well NUNC-Immuno plates (Thermo Fisher, Cat #442404) were coated with 100 μL per well of 0.5, 0.05, or 0.03 pg/mL human PSGL-1 (extracellular domain) recombinant protein (SinoBiological, 13863-H08H) overnight at 4° C. Plates were then washed with Wash Buffer (1×PBS with 0.05% Tween 20, pH 7.4) and blocked with 0.5% (w/v) BSA-PBS for 60 min at room temperature on a plate shaker set to 300 rpm. After blocking, 100 μL of serial dilutions of 15A7H-IgM, 15A7H-IgG4, and controls at concentration range of 5000 pM-4.89 pM were added to the wells and incubated at room temperature for 1 hour. […] After 5 final washes using Wash Buffer, the plates were read out using TMB substrate (followed the instruction manual of BD OptEIA. Cat. 555214) by incubating the wells with […] each of freshly prepared TMB Working Solution for 5 min followed by the addition of sulfuric acid to stop the reaction. Finally, the data of absorbance at 450 nm (OD450 nm) were collected on an ELISA plate reader and analyzed with SoftMax using a 4-parameter logistic model.

[2] = biological target: T1, human PSGL-1 (extracellular domain) …; experiment: ELISA, plate coated with recombinant PSGL-1 at lower density (0.03 pg/mL as printed), FIG. 3C
Method: as §1

[3] = biological target: T2, human PSGL-1 on cells (Sp2/0-hPSGL-1 transfectants; activated human primary T cells) (human, UniProt Q14242 42-412); experiment: cell-based or functional assay
T2 sequence (looked up): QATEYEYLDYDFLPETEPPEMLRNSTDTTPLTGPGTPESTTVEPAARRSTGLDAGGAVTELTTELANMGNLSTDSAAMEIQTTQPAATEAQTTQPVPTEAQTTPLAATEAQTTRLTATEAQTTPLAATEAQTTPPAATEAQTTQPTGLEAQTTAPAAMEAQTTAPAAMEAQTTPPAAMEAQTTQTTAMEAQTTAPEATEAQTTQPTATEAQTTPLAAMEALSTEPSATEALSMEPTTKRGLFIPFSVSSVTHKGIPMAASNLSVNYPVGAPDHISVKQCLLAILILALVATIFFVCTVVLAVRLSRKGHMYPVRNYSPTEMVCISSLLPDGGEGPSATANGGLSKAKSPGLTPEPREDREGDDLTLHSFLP

[4] = biological target: T1, human PSGL-1 (extracellular domain) …; experiment: ELISA, plate coated with recombinant PSGL-1 at high density (0.5 µg/mL), FIG. 3A
Method: as §1

B1: 15A7H-IgM (antibody)
heavy: EVQLVESGGGLVQPGGSLRLSCAASGFTFSSFGMHWVRQAPGKGLEWVAYINGGSSTIFYANAVKGRFTISRDNAKNTLYLQMNSLRAEDTAVYYCARYASYGGGAMDYWGQGTLVTVSSGSASAPTLFPLVSCENSPSDTSSVAVGCLAQDFLPDSITFSWKYKNNSDISSTRGFPSVLRGGKYAATSQVLLPSKDVMQGTDEHVVCKVQHPNGNKEKNVPLPVIAELPPKVSVFVPPRDGFFGNPRKSKLICQATGFSPRQIQVSWLREGKQVGSGVTTDQVQAEAKESGPTTYKVTSTLTIKESDWLSQSMFTCRVDHRGLTFQQNASSMCVPDQDTAIRVFAIPPSFASIFLTKSTKLTCLVTDLTTYDSVTISWTRQNGEAVKTHTNISESHPNATFSAVGEASICEDDWNSGERFTCTVTHTDLPSPLKQTISRPKGVALHRPDVYLLPPAREQLNLRESATITCLVTGFSPADVFVQWMQRGQPLSPEKYVTSAPMPEPQAPGRYFAHSILTVSEEEWNTGETYTCVVAHEALPNRVTERTVDKSTGKPTLYNVSLVMSDTAGTCY
light: DIQMTQSPSSLSASVGDRVTITCRSSQSIVHNDGNTYFEWYQQKPGKAPKLLIYKVSNRFSGVPSRFSGSGSGTHFTLTISSLQPEDFATYYCFQGSYVPLTFGQGTKVEIKRTVAAPSVFIFPPSDEQLKSGTASVVCLLNNFYPREAKVQWKVDNALQSGNSQESVTEQDSKDSTYSLSSTLTLSKADYEKHKVYACEVTHQGLSSPVTKSFNRGEC
chain: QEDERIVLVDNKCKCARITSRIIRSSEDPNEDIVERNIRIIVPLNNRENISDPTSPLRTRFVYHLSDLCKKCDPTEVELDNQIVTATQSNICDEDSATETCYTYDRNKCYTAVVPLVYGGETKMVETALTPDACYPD
notes: also called 15A7H-IgM antibody; pentameric 15A7H-IgM
Q: With B1 as the binder, how does the EC50 [1] read?
A: The EC50 was 0.0459 nM.

Q: What about the EC50 [2] of the same binder?
A: Its EC50 is 0.0396 nM.

Q: What about the “EC50 (nM) of apoptosis of activated T cells, Donor 1” value [3] of the same binder?
A: Its value is 0.0177 nM.

Q: And the “EC50 (nM) of apoptosis of activated T cells, Donor 2” value [3]?
A: The value was 0.0152 nM.

Q: And the “EC50 (nM) of apoptosis of activated T cells, Donor 3” value [3]?
A: Its value is 0.0096 nM.

Q: And the “EC50 (µg/mL) of apoptosis of activated T cells, Donor 1” value [3]?
A: The value was 0.0156 µg/mL.

Q: And the “EC50 (µg/mL) of apoptosis of activated T cells, Donor 2” value [3]?
A: The value was 0.0134 µg/mL.

Q: What about the “EC50 (µg/mL) of apoptosis of activated T cells, Donor 3” value [3] of the same binder?
A: The value was 0.00844 µg/mL.

Q: And the EC50 [4]?
A: The EC50 was 0.0926 nM.

B2: 15A7H-IgG4 (antibody, V domains shown)
VH: EVQLVESGGGLVQPGGSLRLSCAASGFTFSSFGMHWVRQAPGKGLEWVAYINGGSSTIFYANAVKGRFTISRDNAKNTLYLQMNSLRAEDTAVYYCARYASYGGGAMDYWGQGTLVTVSS
VL: DIQMTQSPSSLSASVGDRVTITCRSSQSIVHNDGNTYFEWYQQKPGKAPKLLIYKVSNRFSGVPSRFSGSGSGTHFTLTISSLQPEDFATYYCFQGSYVPLTFGQGTKVEIKR
notes: Bivalent IgG4 antibody described in WO 2012/174001; In some functional assays it was used with a mouse anti-human IgG Fc-gamma cross-linker (CL); also called anti-PSGL-1 bivalent mAb 15A7H; 15A7H-IgG4 + CL (when used with cross-linker)
Q: With B2 as the binder, how does the EC50 [1] read?
A: The EC50 was 0.0974 nM.

Q: What about the EC50 [2] of the same binder?
A: Its EC50 is 0.12 nM.

Q: What about the EC50 [4] of the same binder?
A: Its EC50 is 0.141 nM.
